Data on two molecules can be found in PMC4182348 (PLoS ONE, 2014).

Experiment [1] deals with tetanus toxin fragment C of the heavy chain. Kind of experiment: ELISA. The following applies: one partner purified. (In general: An ELISA detects its analyte on a solid surface through an enzyme-linked reagent.)
Experiment [2] addresses T1, tetanus toxin light chain (Clostridium tetani, strain  …, UniProt P04958).
T1 construct: source: bought: List Biological Laboratories
Kind of experiment: ELISA. The following applies: one partner purified.

T1 sequence (P04958 1-457): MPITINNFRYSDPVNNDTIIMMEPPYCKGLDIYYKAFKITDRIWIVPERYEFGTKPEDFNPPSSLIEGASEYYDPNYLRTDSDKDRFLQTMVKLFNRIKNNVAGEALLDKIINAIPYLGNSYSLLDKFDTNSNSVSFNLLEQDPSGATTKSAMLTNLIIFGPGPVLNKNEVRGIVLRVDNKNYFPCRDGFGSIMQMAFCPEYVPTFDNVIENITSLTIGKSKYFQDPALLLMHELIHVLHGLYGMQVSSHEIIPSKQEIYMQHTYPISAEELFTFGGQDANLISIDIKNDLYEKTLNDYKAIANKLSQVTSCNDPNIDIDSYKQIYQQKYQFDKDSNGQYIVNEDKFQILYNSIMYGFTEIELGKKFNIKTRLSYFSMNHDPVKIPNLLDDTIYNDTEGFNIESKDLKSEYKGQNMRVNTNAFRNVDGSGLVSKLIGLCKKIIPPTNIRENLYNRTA
Chain of tetanus toxin fragment C of the heavy chain (P04958 865-1315 limits assumed): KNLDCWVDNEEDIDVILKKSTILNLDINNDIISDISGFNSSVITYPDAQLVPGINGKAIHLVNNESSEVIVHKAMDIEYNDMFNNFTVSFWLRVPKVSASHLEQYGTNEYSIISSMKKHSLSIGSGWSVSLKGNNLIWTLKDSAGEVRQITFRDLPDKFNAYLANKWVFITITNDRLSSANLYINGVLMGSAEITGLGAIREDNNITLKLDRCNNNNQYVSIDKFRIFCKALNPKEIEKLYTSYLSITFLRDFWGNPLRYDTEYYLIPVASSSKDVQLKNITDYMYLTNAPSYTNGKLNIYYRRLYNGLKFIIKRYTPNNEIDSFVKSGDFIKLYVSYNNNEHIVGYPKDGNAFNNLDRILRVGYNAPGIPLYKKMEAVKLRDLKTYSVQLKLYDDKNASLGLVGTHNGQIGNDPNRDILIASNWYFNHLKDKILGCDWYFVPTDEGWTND

B1: anti-TT mAb of hybridoma 14 (antibody, V domains shown)
VH: VQLQESGPGLVAPSQSLSITCTVSGFSLTSYGVHWVRQPPGKGLEWLGVIWPGGSTNYNSALMSRLSISQDNSKSQVFLKMNSLQIDDTAMYHCARDFQYGNYFDYWGQGTSLTVSS
VL: MPASPGEKITITCSASSSISSNYLHWYQQKPGFSPKLLIYRTSNLASGVPARFSGSGSGTSYSLTVGTMEAEDVATYYCQQGTSIPTFGAGTKLELK
With B1, the binding result in experiment [1] and in experiment [2] was “no binding” throughout.

B2: anti-TT mAb of hybridoma 24 (antibody, V domains shown)
VH: VQLQQTGPGLVQPSQSLSITCTVSAFSLTNYGIHWVRQSPGKGLEWLGVIWTGGSTDYNAPFISRLSISKDNSKSQVFFKMNSLQANDTAIYYCVRDGYRVMDYWGQGTSVTVSS
VL: LSASVGETVTITCRASGNIHNYLAWYQQKQGKSPQLLVYNAKTLTDGVPSRFSGSGSGTQHSLKINSLQPEDFGSYYCQHFWTIPWTFGGGTKLEIK
On to B2, for which the binding result in experiment [1] is reported as “binds”; in experiment [2] it was “no binding”.
